Assay [1] has as its target AAV3B-NKDKLN capsid mutant (SPAKFA→NKDKLN) (adeno-associated virus 3B (engineered)). Nature of the assay: AVB Sepharose HiTrap column, clarified culture supernatant, AAV3B vs AAV3B-NKDKLN head-to-head; real-time PCR.
Assay [2] has as its target AAV3B capsid (vector AAV2/3B.CB7.CI.ffluciferase.RBG) (adeno-associated virus 3B). The description is as above.
For assay [3], the target named is AAVrh64R1 capsid (vector) (adeno-associated virus rh.64R1). Nature of the assay: AVB Sepharose HiTrap column, purified vector mix AAVrh64R1+AAVrh10; genome copies per fraction by real-time PCR.
Assay [4] concerns the target AAV3B-NKDKLN capsid mutant (SPAKFA→NKDKLN) (adeno-associated virus 3B (engineered)). Nature of the assay: AVB Sepharose HiTrap column, DPBS wash fraction; real-time PCR.
In assay [5] the target is AAV3B capsid (vector AAV2/3B.CB7.CI.ffluciferase.RBG) (adeno-associated virus 3B). The assay is described as above.
Assay [6] concerns the target AAV9 capsid (vector, CB7.CI.ffluciferase.RBG) (adeno-associated virus 9). The assay is described as follows: AVB Sepharose HiTrap column, clarified culture supernatant, wild type vs SPAKFA mutant head-to-head; real-time PCR.
Assay [7] addresses AAV8 capsid (vector) (adeno-associated virus 8). The description is as above.
Assay [8] concerns the target AAV9-SPAKFA capsid mutant (NKDKLN→SPAKFA) (adeno-associated virus 9 (engineered)). The assay is described as above.
The target in assay [9] is AAV8-SPAKFA capsid mutant (NQSKLN→SPAKFA) (adeno-associated virus 8 (engineered)). Described as above.
The target of assay [10] is rh.64R1-SPAKFA capsid mutant (NQAKLN→SPAKFA) (adeno-associated virus rh.64R1 (engineered)). The assay is described as above.
Assay [11] concerns the target AAVrh64R1 capsid (vector) (adeno-associated virus rh.64R1). Described as above.
In assay [12] the target is AAV3B-NKDKLN capsid mutant (SPAKFA→NKDKLN) (adeno-associated virus 3B (engineered)). The assay is described as follows: AVB Sepharose HiTrap column, unbound vector in flow-through; real-time PCR.
The target of assay [13] is AAV3B capsid (vector AAV2/3B.CB7.CI.ffluciferase.RBG) (adeno-associated virus 3B). The description is as above.
For assay [14], the target named is AAV8 capsid (vector) (adeno-associated virus 8). The assay is described as follows: AVB Sepharose HiTrap column, purified vector mix AAV8+AAVhu37+AAVrh10; genome copies per fraction by real-time PCR.
Assay [15] has as its target AAVhu37 capsid (vector AAV2/AAVhu37.TBG.EGFP.bGH) (adeno-associated virus hu37). The description is as above.
Assay [16] addresses AAV3B-NKDKLN capsid mutant (SPAKFA→NKDKLN) (adeno-associated virus 3B (engineered)). The assay is described as follows: AVB Sepharose HiTrap column, AVB.C (1 M NaCl) wash fraction; real-time PCR.
For assay [17], the target named is AAV3B capsid (vector AAV2/3B.CB7.CI.ffluciferase.RBG) (adeno-associated virus 3B). Described as above.
Assay [18] shares this target. The assay is described as follows: AVB Sepharose HiTrap column, clarified AAV3B product; genome copies per fraction by real-time PCR.
Assay [19] concerns the target AAVrh10 capsid (vector AAV2/AAVrh10.CMV.PI.Cre.RBG) (adeno-associated virus rh10). Nature of the assay: AVB Sepharose HiTrap column, purified vector mixes; genome copies per fraction by real-time PCR (average of two runs).

As for “AVB Sepharose High Performance affinity resin ligand: 14kD fragment from a single chain llama antibody expressed in yeast (VHH)”, the elution fraction yield came out at 87% in [1] and 98% in [2]. In addition, the percent of loaded vector genome in the elution fraction came out at 22% in [3], 20% in [14], 82% in assay [15] and 84% in assay [19]. Besides, the percent of vector genomes in wash 1 (W1) fraction in assay [4] was 0.1%; in assay [5] it was 0%. The percent recovery of loaded vector in the elution fraction (of total fractions) in [6] worked out at 0.6%; in assay [7], 30%; in assay [8], 51%; in [9], 93%; in [10] it was 91%; in assay [11], 18%. Moreover, the percent of vector genomes in flow-through (FT) fraction was determined as 8.2% in assay [12] and 1.3% in assay [13]. Also, the percent of vector genomes in wash 2 (W2) fraction in assay [16] is 4.6%; in assay [17] it was 0.3%. Further, the percent of vector genomes recovered in the elution fraction in [18] is 98%.

Values taken from patent US20180216133A1.
